Experimental data as given in paper doi:10.1101/2020.07.10.197400 (bioRxiv, 2020).

How the values were obtained:
[1] = target: Trx-kindlin2_F2 (residues 260 – 572) without PH domain (mouse); experiment: SEC-MALS
SEC-MALS = target: the molecule itself; experiment: SEC-MALS

Trx-kindlin2_F2 (residues 260 – 572) without PH domain (domain or fragment)
stoichiometry N [1]: 2

B1: GCN4-tetramerized β1-integrin tail (domain or fragment)
chain: MKQIEDKLEEILSKLYHIENELARIKKLLGERIIHDRREFAKFEKEKMNAKWDTGENPIYKSAVTTVVNPKYEGK
stoichiometry N (SEC-MALS): 4
